Holding throughout (assay): enzyme inhibition kinetics
Assay [1] addresses Cathepsin B (human).
In assay [2] the target is Cathepsin B (human). The source holds these as a separate data set.
In assay [3] the target is T1, Papain (UniProt P00784 134-345).
T1 sequence (looked up): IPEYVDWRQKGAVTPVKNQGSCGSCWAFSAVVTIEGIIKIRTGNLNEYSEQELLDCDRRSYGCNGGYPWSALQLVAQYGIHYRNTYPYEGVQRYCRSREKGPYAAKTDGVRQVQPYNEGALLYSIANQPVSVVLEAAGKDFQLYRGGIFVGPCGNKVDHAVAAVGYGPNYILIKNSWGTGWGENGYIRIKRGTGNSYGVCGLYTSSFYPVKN

Assay [4] has as its target T1, Papain. This is another data set of the same source.

Read-outs that look alike come from different tables or passages of the source.

As for “Human cystatin C (from UniProt P01034 27-146) (natural protein)”, the inhibitory constant (Ki) in assay [1] was determined as 0.06 nM; in assay [2], 0.1 nM.

B1: Human cystatin C (natural protein, UniProt P01034 27-146, looked up)
chain: SSPGKPPRLVGGPMDASVEEEGVRRALDFAVGEYNKASNDMYHSRALQVVRARKQIVAGVNYFLDVELGRTTCTKTQPNLDNCPFHDQPHLKRKAFCSFQIYAVPWQGTMTLSKSTCQDA
Consider B1, for which the Ki is < 0.005 nM in assay [3] and < 0.007 nM in assay [4].

The values above are taken from article PMC4684421 (Protein expression and purification, 2015).
